How the values were obtained:
[1] = target: Deinococcus radiodurans LuxS (Deinococcus radiodurans); test: X-ray crystal structure, P21 form, homodimer interface
[2] = target: Deinococcus radiodurans LuxS (Deinococcus radiodurans); test: X-ray crystal structure, C2 form, crystallographic dimer interface
[3] = target: Haemophilus influenzae LuxS (Haemophilus influenzae); test: X-ray crystal structure, homodimer interface
[4] = target: Helicobacter pylori LuxS (Helicobacter pylori); test: X-ray crystal structure, homodimer interface

Deinococcus radiodurans LuxS (enzyme) gave a surface area buried through this interaction [1] of 3930 Å^2 and a surface area buried through this interaction [2] of 3200 Å^2.

In the case of Haemophilus influenzae LuxS (enzyme), the surface area buried through this interaction [3] is reported as 4160 Å^2.

Helicobacter pylori LuxS (enzyme) was tested, and the surface area buried through this interaction [4] was 4180 Å^2.
